Results: publication PMC12858348, “Structural basis underlying the autoinhibition of the formin FHOD1 and its phosphorylation-dependent activation” (The Journal of Biological Chemistry, 2025)

B1: His-tagged FHOD1-N3 (1–360) [human] / GST-fused FHOD1–DAD (1081–1145) [human] (parent complex)
chain 1: MAGGEDRGDGEPVSVVTVRVQYLEDTDPFACANFPEPRRAPTCSLDGALPLGAQIPAVHRLLGAPLKLEDCALQVSPSGYYLDTELSLEEQREMLEGFYEEISKGRKPTLILRTQLSVRVNAILEKLYSSSGPELRRSLFSLKQIFQEDKDLVPEFVHSEGLSCLIRVGAAADHNYQSYILRALGQLMLFVDGMLGVVAHSDTIQWLYTLCASLSRLVVKTALKLLLVFVEYSENNAPLFIRAVNSVASTTGAPPWANLVSILEEKNGADPELLVYTVTLINKTLAALPDQDSFYDVTDALEQQGMEALVQRHLGTAGTDVDLRTQLVLYENALKLEDGDIEEAPGAGGRRERRKPSSEE
chain 2: MPTVGPSTASPEEPPGSSLPSDTSDEIMDLLVQSVTKSSPRALAARERKRSRGNRKSLRRTLKSG

Variants of: B1
Experiment: GST pull-down, SDS-PAGE, CBB staining, band quantification; parent: 100; read off a plot

Row | Variant | percent of parent [%]
1 | chain 2 MPTVGPSTASPEEPPGSSLPSDTSDEIMDLLVQSVTKSSPRALAARERKRSRGNDKSLRRTLKSG [chain 2 R55D] | ~16
2 | chain 2 MPTVGPSTASPEEPPGSSLPSDTSDEIMDLLVQSVTKSSPRALAAREDKRSRGNRKSLRRTLKSG [chain 2 R48D] | ~26
3 | chain 2 MPTVGPSTASPEEPPGSSLPSDTSDEIMDLLVQSVTKSSPRALAARERKRDRGNRKDLRRDLKSG [chain 2 S51D, chain 2 S57D, chain 2 T61D] | ~6
4 | chain 2 MPTVGPSTASPEEPPGSSLPSDTSDEIMDLLVQSVTKSSPRALAARERKRSRGNRKSLERTLKSG [chain 2 R59E] | ~18

Variants of: B1
Experiment: as above
Remark: another data set of the same source

Row | Variant | percent of parent [%]
5 | chain 2 MPTVGPSTASPEEPPGSSLPSDTSDEIMDLLVQSATKSSPRALAARERKRSRGNRKSLRRTLKSG [chain 2 V35A] | ~96
6 | chain 2 MPTVGPSTASPEEPPGSSLPSDTSDEIADLLVQSVTKSSPRALAARERKRSRGNRKSLRRTLKSG [chain 2 M28A] | ~97
7 | chain 2 MPTVGPSTASPEEPPGSSLPSDTSDEIMDLLAQSVTKSSPRALAARERKRSRGNRKSLRRTLKSG [chain 2 V32A] | ~95
8 | chain 2 MPTVGPSTASPEEPPGSSLPSDTSDEIMDLAVQSVTKSSPRALAARERKRSRGNRKSLRRTLKSG [chain 2 L31A] | ~97

Variants of: B1
Experiment: as above
Remark: another data set of the same source

Row | Variant | percent of parent [%]
9 | chain 1 MAGGEDRGDGEPVSVVTVRVQYLEDTDPFACANFPEPRRAPTCSLDGALPLGAQIPAVHRLLGAPLKLEDCALQVSPSGYYLDTELSLEEQREMLEGFYEEISKGRKPTLILRTQLSVRVNAILEKLYSSSGPELRRSLFSLKQIFQEDKDLVPEFVHSEGLSCLIRVGAAADHNYQSYILRALGQLMLFVDGMLGVVAHSDTIQWLYTLCASLSRLVVKTALKLLLVFVEYSENNAPLFIRAVNSVASTTGAPPWANLVSILEEKNGADPELLVYTVTLINKTLAALPDQDSFYRVTDALEQQGMEALVQRHLGTAGTDVDLRTQLVLYENALKLEDGDIEEAPGAGGRRERRKPSSEE [chain 1 D296R] | ~66
10 | chain 1 MAGGEDRGDGEPVSVVTVRVQYLEDTDPFACANFPEPRRAPTCSLDGALPLGAQIPAVHRLLGAPLKLEDCALQVSPSGYYLDTELSLEEQREMLEGFYEEISKGRKPTLILRTQLSVRVNAILEKLYSSSGPELRRSLFSLKQIFQEDKDLVPEFVHSEGLSCLIRVGAAADHNYQSYILRALGQLMLFVDGMLGVVAHSDTIQWLYTLCASLSRLVVKTALKLLLVFVEYSENNAPLFIRAVNSVASTTGAPPWANLVSILEEKNGADPELLVYTVTLINKTLAALPRQDSFYDVTDALEQQGMEALVQRHLGTAGTDVDLRTQLVLYENALKLEDGDIEEAPGAGGRRERRKPSSEE [chain 1 D290R] | ~52
11 | chain 1 MAGGEDRGDGEPVSVVTVRVQYLEDTDPFACANFPEPRRAPTCSLDGALPLGAQIPAVHRLLGAPLKLEDCALQVSPSGYYLDTELSLEEQREMLEGFYEEISKGRKPTLILRTQLSVRVNAILEKLYSSSGPELRRSLFSLKQIFQEDKDLVPEFVHSEGLSCLIRVGAAADHNYQSYILRALGQLMLFVDGMLGVVAHSDTIQWLYTLCASLSRLVVKTALKLLLVFVEYSENNAPLFIRAVNSVASTTGAPPWANLVSILEEKNGADPELLVYTVTLINKTLAALPDQRSFYDVTDALEQQGMEALVQRHLGTAGTDVDLRTQLVLYENALKLEDGDIEEAPGAGGRRERRKPSSEE [chain 1 D292R] | ~66
12 | chain 1 MAGGEDRGDGEPVSVVTVRVQYLEDTDPFACANFPEPRRAPTCSLDGALPLGAQIPAVHRLLGAPLKLEDCALQVSPSGYYLDTELSLEEQREMLEGFYEEISKGRKPTLILRTQLSVRVNAILEKLYSSSGPELRRSLFSLKQIFQEDKDLVPEFVHSEGLSCLIRVGAAADHNYQSYILRALGQLMLFVDGMLGVVAHSDTIQWLYTLCASLSRLVVKTALKLLLVFVEYSENNAPLFIRAVNSVASTTGAPPWANLVSILEEKNGADPELLVYTVTLINKTLAALPDQDSFYDVTDALEQQGMEALVQRHLGTAGTDVDLRTQLVLYANALKLEDGDIEEAPGAGGRRERRKPSSEE [chain 1 E331A] | ~28
